Measured values: PMC3581573

Biological target: Flag-HsPRMT5 (UniProt O14744)
Assay: biotinylated peptide pull-down on streptavidin beads
Settings: reference: unmodified H4 peptide; sites S1

- binding against the reference: lost
Substance: histone H4 1-20 (from UniProt P62805) H4 S1ph peptide
